Experimental data taken from the RNAGym collection of RNA variant scans (doi:10.1073/pnas.2313332121).

B1: TPR t1 (parent)
chain: GACCAAUCUGCCCUCAGAGCUCGAGAACAUCUUCGGAUGCAGAGGAGGCAGGCUUCGGUGGCGCGAUAGCGCCAACGUCCUCAACCUCCAAUGCAUCCCACCACAUGAUGAUGCCUGAAGAGCCUUGGUUUUUUG

Variants of: B1
Assay: polymerase ribozyme fitness, log enrichment relative to wild type (log ratio); higher = more active; in vitro selection for triplet polymerase activity
Summary of the method: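 A single round of triplicate in vitro selection, including frozen incubation at −7 °C, was applied to PCR-built, transcribed mutant libraries of each subunit of a heterodimeric triplet polymerase ribozyme. Illumina sequencing of input and output libraries retained genotypes with ≥10 input reads and ≥1 read per output. Fitness is the base-2 logarithm of genotype enrichment divided by wild-type enrichment, from inverse-variance-weighted replicate averages.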
With GACCAAUCUGCCCUCAGAGCUCGAGAACAUCUUCGGAUGCAGAGGAGGCAGGCUUCGGUGGCUCGAUAGCGCCAACGUCCUCAACCUCCAAAGCAACCCACCACAUGAUGAUCCCUGAAGAGCCUUGGUUUUUUG the “polymerase ribozyme fitness (log ratio)” value was -3.99. In the case of GACCAAUCUGCCCUCAGAGCUCGAGAACAUCUUCGGAUGCAGAGGAGGCAGGCUUCGGUGGCUCGAUAGCGCCAACGUCCUCAAACUUCAAUGCAUCCCAGCACAUGAUGAUGCAUGAAGAGCAUUGGCUUUUUG, the “polymerase ribozyme fitness (log ratio)” value is reported as -2.52. With GACCAAUCUGCCCUCAGAGCUCGAGAACAUCUUCGGAUGCAGAGGAGGCAGGCUUCGGUGGCGAGAUAGCGCCAACGUCCUCAACCUCCAAUGCAUCCCACCACAUGAUGAUGCCUGAACAGCCUUGGUUUUUUG the “polymerase ribozyme fitness (log ratio)” value was -3.88. In the case of GACCAAUCUGCCCUCAGAGCUCGAGAACAUCUUCGGAUGCAGAGGAGGCAGGCUUCGGUGGCUCGAUAGCGCUAACGUCCUCAACCUCCAAUGCAUCCCACCACAUGAUGAUGCCUGAAGAGCCUUGGUUUUUUG, the “polymerase ribozyme fitness (log ratio)” value is reported as -2.45. With GACCAAUCUGCCCUCAGAGCUCGAGAACAUCUUCGGAUGCAGAGGAGGCAGGCUUCGGUGGCGAGAUAGCGCCAACGUCCUCAACUUCCAAUGCAUCUCACCACAUGAUGAUGCCUGAAGAGCCUUGGUUUUUUG the “polymerase ribozyme fitness (log ratio)” value was -7.04. In the case of GACCAAUCUGCCCUCAGAGCUCGAGAACAUCUUCGGAUGCAGAGGAGGCAGGCUUCGGUGGCUCGAUAGCGCCAACGUCCUCAACCUCCAAUGCAUCCCACCACAUGAUGAUGCCUGAAGAGCCUUGGUCUUUUG, the “polymerase ribozyme fitness (log ratio)” value is reported as -1.84. In the case of GACCAAUCUGCCCUCAGAGCUCGAGAACAUCUUCGGAUGCAGAGGAGGCAGGCUUCGGUGGCGAGAUAGCGCCAACGUCGUCAACCUCCAAUGCAUCCCACCCCAUGAGGAUGCCUGUAGAGCCUUGGUUUUUUG, the “polymerase ribozyme fitness (log ratio)” value is reported as -5.65. In the case of GACCAAUCUGCCCUCAGAGCUCGAGAACAUCUUCGGAUGCAGAGGAGGCAGGCUUCGGUGGCUCGAUAGCGCCAACGUCCUCAACCUCCAAUGCAUUCCACCACAUGAUGACGCCUGAAGCGCCUUGGUUUUUUG, the “polymerase ribozyme fitness (log ratio)” value is reported as 0.0312. For GACCAAUCUGCCCUCAGAGCUCGAGAACAUCUUCGGAUGCAGAGGAGGCAGGCUUCGGUGGCUCGAUAGCGCCAACGUCCUCAACCUCCAAUGCAUCCCACCACAUGAUGAUGCCUGAAGAGCCUUGGUUUUUGG, the “polymerase ribozyme fitness (log ratio)” value was -1.64. With GACCAAUCUGCCCUCAGAGCUCGAGAACAUCUUCGGAUGCAGAGGAGGCAGGCUUCGGUGGCUCGAUAGCGUCAACGUCCUCAACCUCCAAUGCAUCCCACCACAUGAUGAUGCAUGAAGAGCCUUGGUUUUUUG the “polymerase ribozyme fitness (log ratio)” value was -1.23. In the case of GACCAAUCUGCCCUCAGAGCUCGAGAACAUCUUCGGAUGCAGAGGAGGCAGGCUUCGGUGGCUCGAUAGCGCCAACGUCCUCAACCUCCAAUUCAUCCCACCACAUGAUGAUGCCUGAAGAGCGUUGGUUUUUUG, the “polymerase ribozyme fitness (log ratio)” value is reported as -0.616. With GACCAAUCUGCCCUCAGAGCUCGAGAACAUCUUCGGAUGCAGAGGAGGCAGGCUUCGGUGGCUCGAUAGCGCCAACGUCCUCAACCUCCAAUGCAUCCCACCACAUGAUGAUGCCUGAACAGCCUUGGUUAUUUG the “polymerase ribozyme fitness (log ratio)” value was 0.507. For GACCAAUCUGCCCUCAGAGCUCGAGAACAUCUUCGGAUGCAGAGGAGGCAGGCUUCGGUGGCUCGAUAGCGCCAACGUCCUCAAUCUCCAAUGCAUCCCACCACAUGAUGAUGCCUGAAGAGCCUUGGUUUUUUG, the “polymerase ribozyme fitness (log ratio)” value was -2.96. In the case of GACCAAUCUGCCCUCAGAGCUCGAGAACAUCUUCGGAUGCAGAGGAGGCAGGCUUCGGUGGCUCGAUAGCGCCAACGUCCUCAACCUCCAAUGCAUCCCAACACAUGAUGAUGCCUGAAGAGCCUUGGUUUUUUG, the “polymerase ribozyme fitness (log ratio)” value is reported as -2.28. With GACCAAUCUGCCCUCAGAGCUCGAGAACAUCUUCGGAUGCAGAGGAGGCAGGCUUCGGUGGCUCGAUAGCGCCAACGUCCUCAACCUCCAAUGCAUCCCACCACAUGAUGAUGCCUUAAGAGCCUUGGUUUUUUG the “polymerase ribozyme fitness (log ratio)” value was -2.02. With GACCAAUCUGCCCUCAGAGCUCGAGAACAUCUUCGGAUGCAGAGGAGGCAGGCUUCGGUGGCUCGAUAGCGCCAACGUCCUCAACCUCAAAUGCAUCCCACCACAUGAUGAUGCCUGAAGAGCCUUGGUUUUUUG the “polymerase ribozyme fitness (log ratio)” value was -2.53. With GACCAAUCUGCCCUCAGAGCUCGAGAACAUCUUCGGAUGCAGAGGAGGCAGGCUUCGGUGGCUCGAUAGCGCCAACGUCCUCAACCUCCAAUGCAUCCCACCACAUGAUGAUGCCUUAAGAGCCUUGGGUUUUUG the “polymerase ribozyme fitness (log ratio)” value was -6.2. With GACCAAUCUGCCCUCAGAGCUCGAGAACAUCUUCGGAUGCAGAGGAGGCAGGCUUCGGUGGCUCGAUAGCGCCAACGUCCUCAACCUCCAAUGCAUCCCACCAAAUGAUGAUGCCUGAAGAGCCUUGGUUUUAUG the “polymerase ribozyme fitness (log ratio)” value was -3.31. In the case of GACCAAUCUGCCCUCAGAGCUCGAGAACAUCUUCGGAUGCAGAGGAGGCAGGCUUCGGUGGCUCGAUAGCGCCAACGUCCCCAACAUCCAAUGCAUCCCACCACAUGAUGAUGCCUGAAGAGCCUUGGCUUUUUG, the “polymerase ribozyme fitness (log ratio)” value is reported as -5.92. In the case of GACCAAUCUGCCCUCAGAGCUCGAGAACAUCUUCGGAUGCAGAGGAGGCAGGCUUCGGUGGCGAGAUAGCGCCAACGUCCUCAACCUCCAAUGCAUCCCACCACAUGAUGAUGCCUGAAGAGCAUUGGUUUUUUG, the “polymerase ribozyme fitness (log ratio)” value is reported as -4.7. For GACCAAUCUGCCCUCAGAGCUCGAGAACAUCUUCGGAUGCAGAGGAGGCAGGCUUCGGUGGCGAGAUAGCGCCAACGUCCUCUACCUCCAAUGCAUCCCACCACAUGAUGAUGCCUGAAGAGCCUUGGUUUUUUG, the “polymerase ribozyme fitness (log ratio)” value was -7.05. With GACCAAUCUGCCCUCAGAGCUCGAGAACAUCUUCGGAUGCAGAGGAGGCAGGCUUCGGUGGCGAGAUAGCGCCAACGUCCUCAACCUCCAAUGCAUCCCACCACAUGAUGAUGCCUCAAGAGCCUUGGUUUUUUG the “polymerase ribozyme fitness (log ratio)” value was -6.03. For GACCAAUCUGCCCUCAGAGCUCGAGAACAUCUUCGGAUGCAGAGGAGGCAGGCUUCGGUGGCGAGAUAGCGCCAACGUCCUCAACCUCCAAUGCAUCCCACCACAUGAUGAUGCCUUAAGAGCCUUGGUUUUUUG, the “polymerase ribozyme fitness (log ratio)” value was -6.44. For GACCAAUCUGCCCUCAGAGCUCGAGAACAUCUUCGGAUGCAGAGGAGGCAGGCUUCGGUGGCGAGAUAGCGCCAACGUCCUCAACCUCCAAUGCAUCCCACCACAUGAUGAUGCUUGAAGAGCCUUGGUUUUUUG, the “polymerase ribozyme fitness (log ratio)” value was -5.54. With GACCAAUCUGCCCUCAGAGCUCGAGAACAUCUUCGGAUGCAGAGGAGGCAGGCUUCGGUGGCUCGAUAGCGCCAACGUCCUCAACCUCCAAUGCAUCCCACCACAUGAUGAUGGCUUAAGAGCCUUGGUUUUUUG the “polymerase ribozyme fitness (log ratio)” value was -5.98. For GACCAAUCUGCCCUCAGAGCUCGAGAACAUCUUCGGAUGCAGAGGAGGCAGGCUUCGGUGGCGAGAUAGCGCCAACGUCCUCAACCUCCAAUGCAUCCCACCACAUGAUGAUACCUGAAGAGCCUUGGUUUUUUG, the “polymerase ribozyme fitness (log ratio)” value was -6.92. With GACCAAUCUGCCCUCAGAGCUCGAGAACAUCUUCGGAUGCAGAGGAGGCAGGCUUCGGUGGCGAGAUAGCGCCAACGUCCUCAACCUCCAAUCCAUCCCACCACAUGAUGAUGCCUCAAGAGCCUUGGUUUUUUG the “polymerase ribozyme fitness (log ratio)” value was -6.1. For GACCAAUCUGCCCUCAGAGCUCGAGAACAUCUUCGGAUGCAGAGGAGGCAGGCUUCGGUGGCUCGAUAGCGCCAACGUCCUCAACCUCCAAUGCAUCCCACCACAUGAUGAUGCCUGAAGAGCCUUAGUUUUUUG, the “polymerase ribozyme fitness (log ratio)” value was -2.25. With GACCAAUCUGCCCUCAGAGCUCGAGAACAUCUUCGGAUGCAGAGGAGGCAGGCUUCGGUGGCUCGAUAGCGCCAACGUCCUCAACCUCCAAUGCAUCCCACCACACGAUGAUGCCUGAAGAGCCUUGGUUUUUUG the “polymerase ribozyme fitness (log ratio)” value was -1.92. In the case of GACCAAUCUGCCCUCAGAGCUCGAGAACAUCUUCGGAUGCAGAGGAGGCAGGCUUCGGUGGCUCGAUAGCGCCAACGUCCUCAACCUCCAAUACAUCCCACCACAUGAUGAUGCCUGAAGAGCAUUGGUUUUUUG, the “polymerase ribozyme fitness (log ratio)” value is reported as 0.423. With GACCAAUCUGCCCUCAGAGCUCGAGAACAUCUUCGGAUGCAGAGGAGGCAGGCUUCGGUGGCUCGAUAGCGCCAACGUCCUCAACCUCCAAUGAAUCCCACCACAUGAUGAUGCCUGAAGCGCCUUGGUUUUUUG the “polymerase ribozyme fitness (log ratio)” value was -0.515. With GACCAAUCUGCCCUCAGAGCUCGAGAACAUCUUCGGAUGCAGAGGAGGCAGGCUUCGGUGGCUCGAUAGUGCCAACGUCCUCAACCUCCAAUGCAUCCCACCACAUGAUGAUGCCUGAAGAGCCUUGGUUUUUUG the “polymerase ribozyme fitness (log ratio)” value was -0.91. In the case of GACCAAUCUGCCCUCAGAGCUCGAGAACAUCUUCGGAUGCAGAGGAGGCAGGCUUCGGUGGCUCGAUAGGGCCAACGUCCUCAACCUCCAAUGCAUCCCACCACAUGAUGAUGCCUGGAGAGCCAUGGUUUUUUG, the “polymerase ribozyme fitness (log ratio)” value is reported as -1.35. For GACCAAUCUGCCCUCAGAGCUCGAGAACAUCUUCGGAUGCAGAGGAGGCAGGCUUCGGUGGCUCGAUAGCGCCAACGUCCUCAACCUCCAAUGCAUCCCACCACAUGAUGAAGCCUGAAAAGCCUUGGUUUUUUG, the “polymerase ribozyme fitness (log ratio)” value was -1.02. With GACCAAUCUGCCCUCAGAGCUCGAGAACAUCUUCGGAUGCAGAGGAGGCAGGCUUCGGUGGCGAGAUACCGCCAUCGUCCUCAACCACCAAUGCAACCCACCACAUGAUGAUGCCUGAAGAGCCUUGGUUUUUUG the “polymerase ribozyme fitness (log ratio)” value was -1.55. In the case of GACCAAUCUGCCCUCAGAGCUCGAGAACAUCUUCGGAUGCAGAGGAGGCAGGCUUCGGUGGCUCGAUAGCGCCAACGUCCUCAACCUCCAAUGCACCCCACCACAUGAUGAUGCCUGAAGAGCCUUGGUUUUUUG, the “polymerase ribozyme fitness (log ratio)” value is reported as -1.31. For GACCAAUCUGCCCUCAGAGCUCGAGAACAUCUUCGGAUGCAGAGGAGGCAGGCUUCGGUGGCUCGAUAGCGCCAACGUCCUCAACCUCCAAUGCAUCCCACCACAUGAUGAUGCCUGAAGAACCUUGGUUUUUUG, the “polymerase ribozyme fitness (log ratio)” value was -2.28. In the case of GACCAAUCUGCCCUCAGAGCUCGAGAACAUCUUCGGAUGCAGAGGAGGCAGGCUUCGGUGGCUCGAUAGCGCCAACGUCCUCAAUCUCCAAUGCAUCCCACCACAUGAUUAUGCCUGAAGAGCCUUGGUUUUUUG, the “polymerase ribozyme fitness (log ratio)” value is reported as -4.39. With GACCAAUCUGCCCUCAGAGCUCGAGAACAUCUUCGGAUGCAGAGGAGGCAGGCUUCGGUGGCUCGAUAGCGCCAACGUCCUCAACCUCCAAUGCAUCCCACCAAAUGAUGAUGCCUGAAGAGCCUUGGUUUUUUG the “polymerase ribozyme fitness (log ratio)” value was -2.5. In the case of GACCAAUCUGCCCUCAGAGCUCGAGAACAUCUUCGGAUGCAGAGGAGGCAGGCUUCGGUGGCGAGAUAGCGCCAACGACCUCAACCUCCAAUACAUCCCACCACAUGAUGAUGCCUGAAGAGCCUUGGUUUUUUG, the “polymerase ribozyme fitness (log ratio)” value is reported as -6.61. In the case of GACCAAUCUGCCCUCAGAGCUCGAGAACAUCUUCGGAUGCAGAGGAGGCAGGCUUCGGUGGCGAGAUAGCGCCAACGUCGUCUACCUCCAAUGCAUCCUACCCCAUGAUGAUGCCUGAAGAGCCAUGGUUUUUUG, the “polymerase ribozyme fitness (log ratio)” value is reported as -7.56. For GACCAAUCUGCCCUCAGAGCUCGAGAACAUCUUCGGAUGCAGAGGAGGCAGGCUUCGGUGGCUCGAUAGCGCCAACGUCCUCAACCACCAAUGCAUCCCACCACAUGAUGAUGACUGAAGAGCCUUGGUUUUUUG, the “polymerase ribozyme fitness (log ratio)” value was -3.29.
